Test results reported in article PMC9552611, “MtTRC-1, a Novel Transcription Factor, Regulates Cellulase Production via Directly Modulating the Genes Expression of the Mthac-1 and Mtcbh-1 in Myceliophthora thermophila”.

T1: GST-MtTRC-1-DBD (Myceliophthora thermophila ATCC 42464) (UniProt G2Q031)
T1 sequence: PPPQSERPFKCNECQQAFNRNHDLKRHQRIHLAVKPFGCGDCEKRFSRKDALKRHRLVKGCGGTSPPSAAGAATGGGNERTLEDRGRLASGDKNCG

T2: GST-MtTRC-1-DBD (Myceliophthora thermophila ATCC 42464, UniProt G2Q031 355-450)
T2 sequence: T1 sequence

B1: Mthac-1-P7-FP-M4 (dsDNA)
DNA 1: GATGTGTTTTACAATCGTTCTATTTATTCATTGCTTGACTTGTGGG
DNA 2: CCCACAAGTCAAGCAATGAATAAATAGAACGATTGTAAAACACATC

Key:
[1] = biological target: T1, GST-MtTRC-1-DBD (Myceliophthora thermophila ATCC 42464); test: EMSA; conditions: EMSA: 20 mM Tris-base pH 7.5, 20 mM KCl, 10 mM MgCl2, 2 mM DTT, 0.5 ug/uL BSA, 0.2 mg/mL fish sperm DNA, 5% glycerol, 25 C 30 min, 10 ng probe; gel 5% PAGE …
GST-MtTRC-1-DBD = biological target: T2, GST-MtTRC-1-DBD; test: EMSA; EMSA: 20 mM Tris-base pH 7.5, 20 mM KCl, 10 mM MgCl2, 2 mM DTT, 0.5 ug/uL BSA, 0.2 mg/mL fish sperm DNA, 5% glycerol, 25 C 30 min, 10 ng probe; gel 5% PAGE 0.5x TBE 4 C. Footprinting: 400 ng probe in 40 uL, 25 C 30 min; conditions: protein: recombinant; tags: GST (N-terminal, pGEX-4T-1); label: Cy5

Molecule | binding [1] | binding result (GST-MtTRC-1-DBD)
TTTGCACCATGGAACCTGTGCCCAAAGAACCAAAGAACGCTATTCGCACATATTGCGAATCAGTTGCCAGTGATAGGGGGCGGGGACAGAACCCAAGCCGAGACATACTGTACAACCCAGCGGGTTGTCAATTGCACGCTACATGGTGTAATTTGTATTCCGGACGCACATCATTTCGCAGTTAAGGTTGTGCCCGCTTTTCTGCACTGCCGCTTTGGCGTCTCTTTTTTTTTTTTTTTACGAAGGCTTGCAAGGCGACGTCTTACGCGGTCGGACTTGAATCAGACA (double strand) [Mthac-1-P3] | binds | –
B1 | – | no binding
